Test results: patent publication US20210188980A1 (SHANGHAI EPIMAB BIOTHERAPEUTICS, published 2021)
Residue numbers refer to the chain shown, from its start.

B1: mAb742 (antibody, V domains shown)
VH: QGQLQQSGAELVRPGASVTLSCKASGYTFNDYEMHWVKQTPVHGLEWIGAIDPETGGTAYNQKFKGKAILTADKSSSTAYMELRSLTSEDSAVYYCIRWGSTVFPYWGQGTLVTVS
VL: DGVLTQTPLSLPVNIGDQASISCKSTKSLLNSDGFTYLDWYLQKPGQSPQLLIYLVSNRFSGVPDRFSGSGSGTDFTLKISRVEAEDLGVYYCFQSNYLPWTFGGGTKLEIK
notes: murine hybridoma anti-LAG-3 mAb
B2: mAb744 (antibody, V domains shown)
VH: B1 VH with G2V, A16T, N30T, V37M, E54A, E82D, L83F, S101T
VL: B1 VL with G2V
notes: murine hybridoma anti-LAG-3 mAb; also called rnAb744
B3: mAb748 (antibody, V domains shown)
VH: EVQMQQSGAELVRPGASVKLSCTVSGFNIKDDYMHWVKQRPEQGLEWIGWIDPENGDTEYASKFQGKATITADTSSNTAYLQLNSLTSEDTAVYYCTYFDYWGQGTTLTVSS
VL: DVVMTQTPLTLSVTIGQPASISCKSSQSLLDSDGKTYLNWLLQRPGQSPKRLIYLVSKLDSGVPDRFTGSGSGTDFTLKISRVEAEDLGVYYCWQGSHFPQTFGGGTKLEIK
notes: as for B1
B4: HumAb747-59 (antibody, human IgG1, V domains shown)
VH: EVQLVQSGAEVKKPGATVKLSCTASDFNIKDDYMHWVKQRPEQGLEWIGWIVPENGNTEYASKFQGRATITADTSTNTAYLELSSLRSEDTAVYYCTVYGDYWGQGTTVTVSS
VL: DIQMTQSPSSLSASVGDRVTITCRASQEISGYLSWLQQKPGGAIKRLIYAASTLDSGVPSRFSGSRSGSDYTLTISSLQPEDFADYYCLQYASYPLTFGQGTKLELK
notes: humanized mAb747; human IgG1/kappa constant domains
B5: D1-70-IgG (antibody, V domains shown)
VH: EVQLVQSGAEVKKPGASVKVSCKASGFNIKDDYMHWVRQAPGQGLEWIGWIVPRNGNTMYASKFQGRVTITADTSINTAYMELSRLRSDDTAVYYCTVYGDYWGQGTTVTVSS
VL: B4 VL with T22N, G41E, A43T, S56L, D85T, Q100G, L104V, L106I
notes: human IgG1/kappa constant domains
B6: HumAb747-60 (antibody, human IgG1, V domains shown)
VH: B4 VH with E46D, R67K
VL: B4 VL
notes: as for B4

How the values were obtained:
[1] = target: T1, human LAG-3 expressed on cells (human, UniProt P18627 23-525); experiment: cell-based or functional assay
T1 sequence (looked up): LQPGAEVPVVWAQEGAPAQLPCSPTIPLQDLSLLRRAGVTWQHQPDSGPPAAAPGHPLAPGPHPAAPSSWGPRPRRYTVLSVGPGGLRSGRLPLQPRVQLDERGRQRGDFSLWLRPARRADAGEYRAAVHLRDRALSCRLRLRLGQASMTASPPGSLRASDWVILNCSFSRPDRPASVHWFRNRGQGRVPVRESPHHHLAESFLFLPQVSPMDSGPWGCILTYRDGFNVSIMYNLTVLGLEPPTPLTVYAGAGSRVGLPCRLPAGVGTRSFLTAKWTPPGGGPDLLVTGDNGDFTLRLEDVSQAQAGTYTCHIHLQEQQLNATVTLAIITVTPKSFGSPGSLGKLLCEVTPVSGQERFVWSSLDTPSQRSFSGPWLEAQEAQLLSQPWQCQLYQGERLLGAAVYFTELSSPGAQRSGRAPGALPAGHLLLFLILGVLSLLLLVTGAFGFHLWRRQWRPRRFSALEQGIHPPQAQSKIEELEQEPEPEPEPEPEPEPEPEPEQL

[2] = target: T2, human LAG-3 ECD/Fc fusion protein (human); experiment: ELISA, coated huLAG-3 ECD/Fc
T2 construct: also called HuLAG-3 ECD/Fc
Experimental: The supernatants of hybridoma clones were primarily screened by ELISA. Briefly, 50 μl/well of […] human LAG-3 ECD/Fc in NaHCO₃ were directly coated in each well of 96-well plate overnight. Plates were washed 3 times with 1×PBST, 300 μl per well. After blocking with 1% BSA in PBST at 250 μl per well and incubating at room temperature for 1 hour, the hybridoma supernatants were added at 50 μl per well and incubated at 37° C. for 1 hour. After washing, an HRP-linked goat anti-mouse IgG Fc secondary antibody (Cat. No. A0168, Sigma) was added at 100 μl/well and the plates were incubated at room temperature for 1 hour. TMB reagent (InnoReagents) was used to detect and develop the ELISA signal at 100 μl/well for 15 minutes, the reaction was stopped with 1 Normal HCL. The plates were read with a plate reader (SpectraMax® M5e, Molecular Devices, USA) at a wavelength of 450 nm. The ELISA-positive antibody producer clones were further verified by FACS analysis using methods similar to Example 1.4, above, except that stable HEK 293F cell lines expressing either human LAG-3 or cynomolgus LAG-3 were used. Hybridomas producing LAG-3 binding activity were selected and further characterized in a receptor blocking assay (RBA).
A binding ELISA was performed in the same way as described in Example 7.2 above. Each purified antibody was 10-fold serially diluted. After blocking of a 96-well assay plate with wells containing immobilized LAG-3 ECD/Fc fusion protein targets, the purified antibody samples with diluted concentrations were added to wells of the assay plate. The HRP-linked anti-mouse IgG antibody (A0168, Sigma) and TMB reagent were used to detect and develop the ELISA signal, which were read on a SpectraMax M5e plate reader at wavelength of 450 nm. Curves were fitted using GraphPad software, and EC50 values were calculated. Similarly, a RBA was also performed as described in Example 7.3 with titrated, purified antibodies, and maximum inhibition percentages and IC50 values were determined.

[3] = target: T1, human LAG-3 expressed on cells; experiment: FACS, HEK 293F huLAG-3 cells
Experimental: (§1) FAGS analysis was performed using methods similar to Example 1.4, above, except that stable HEK 293F cell lines expressing either human LAG-3 cynomolgus LAG-3 were used. LAG-3 expressing cells were charged at 2×10⁴ cell per well into 96-well assay round-bottomed assay plates (Cat. No. 3799; Corning) and stained with purified anti-LAG-3 antibodies. LAG-3 antibodies were detected with AlexaFluor® Donkey anti-Mouse Ig (H+L) Highly Cross-Adsorbed Secondary Antibody (Cat. No. A21202; Invitrogen), and cell fluorescence was monitored using a flow cytometer. The data were processed by GraphPad software, and EC50 values were calculated.

[4] = target: T3, cynomolgus LAG-3 expressed on HEK 293F cells (cynomolgus); experiment: FACS, HEK 293F cynoLAG-3 cells
T3 construct: whole, on cells
Experimental: as §1

[5] = target: T2, human LAG-3 ECD/Fc fusion protein; experiment: FACS RBA, huLAG-3 ECD/Fc on Raji; competitor MHC Class II
Experimental: Supernatants displaying LAG-3 specific activity were tested for the ability to block LAG-3 receptor binding to MHC Class II. Raji human B cell lymphoblasts express high levels of MCH Class II and were used as binding targets for LAG-3 ECD/Fc proteins described above. Briefly, Raji cells were harvested and resuspend in FACS buffer and plated in 96-well plates (2×10⁵ cells/well). Anti-LAG-3 hybridoma supernatants were mixed with soluble LAG-3 ECD/Fc and the mixture was added to wells at a final volume of 100 μl/well. After adding the mixture to cells, the plates were incubated at room temperature for 30 minutes. After washing twice with PBS, the cells were incubated with anti-human IgG Alexa Fluor® 488 secondary antibody at 4° C. for 1 hour, washed twice with PBS, then fluorescence was measured on a flow cytometer.
Purified anti-LAG-3 antibodies also were tested in a RBA in the same manner as described in Example 7.3. Antibodies were also tested in an antigen-specific T cell activation assay, as follows: A huLAG-3 expressing murine T hybridoma cell line was generated to order by ChemPartner (Shanghai, CN). Mouse splenocytes from the same strain of mice were used as effector cells. The hybridoma expressing the huLAG-3 receptor protein is capable of binding to MHC Class II-positive mouse splenocytes, with inhibitory effect via engagement of Class II. The assay tests for anti-LAG-3 antibody-mediated reversal of the inhibitory effect, as measured by increased production of IL-2. Mouse spleenocytes were harvested from 6-8 week-old female C57BL/6 mice, red blood cells were lysed using Red Blood Cell Lysis Buffer (Sigma-Aldrich; R7757) according to the maker's instructions. Next, 50 μl T hybridoma-huLAG-3 cells (2×10⁶ cells/ml) were seeded in each well of a 96-well culture plate, and then a series of anti-LAG-3 monoclonal antibodies in solution at 50 μl/well were added and incubated at 37° C. for 30 min. Mouse splenocytes (4×10⁶ cells/ml) and the antigen (20 μg/ml) were mixed and incubated at 37° C. for 30 min. The mixture (100 μl/well) was added into each well that was already seeded with T hybridoma-huLAG-3 cells and anti-LAG-3 mAbs. The mixture of antibodies, T hybridoma-huLAG-3 cells, mouse splenocytes, and the antigen was cultured for 3 days.

[6] = target: T4, recombinant human LAG-3-his protein (Novoprotein) (human, UniProt P18627 23-450); experiment: BLI Octet, Ab on AHC sensor, huLAG-3-his; test group 4
T4 construct: Bought; also called huLAG-3; not shown: His tag
T4 sequence (looked up): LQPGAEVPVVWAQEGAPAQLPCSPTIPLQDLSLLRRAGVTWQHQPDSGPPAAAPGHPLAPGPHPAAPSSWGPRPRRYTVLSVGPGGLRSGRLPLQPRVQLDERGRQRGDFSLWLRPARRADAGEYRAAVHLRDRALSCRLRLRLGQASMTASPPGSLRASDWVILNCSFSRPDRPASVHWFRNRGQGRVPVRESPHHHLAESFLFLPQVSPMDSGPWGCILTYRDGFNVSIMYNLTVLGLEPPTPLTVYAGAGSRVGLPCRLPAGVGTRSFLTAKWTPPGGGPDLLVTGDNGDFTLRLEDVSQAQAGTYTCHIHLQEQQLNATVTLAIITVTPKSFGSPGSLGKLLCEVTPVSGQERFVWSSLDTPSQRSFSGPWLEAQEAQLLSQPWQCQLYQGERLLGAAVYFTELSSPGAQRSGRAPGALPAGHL
Experimental: (§2) All 18 humanized antibodies (Table 34) and a chimeric antibody having the parental murine VH and VL domains (mAb747c) were ranked by dissociation rate constant (koff). Briefly, antibodies were characterized for affinities and binding kinetics by Octet®RED96 biolayer interferometry (Pall ForteBio LLC). Antibodies were captured by Anti-hIgG Fc Capture (AHC) Biosensors (Pall) at a concentration of 100 nM for 30 seconds. Sensors were then dipped into running buffer (1× pH7.2 PBS, 0.05% Tween 20, 0.1% BSA) for 60 seconds to check baseline. Binding was measured by dipping sensors into a single concentration of recombinant human LAG-3-his protein (Novoprotein). Dissociation was followed by dipping sensors into running buffer for 1200 seconds. The association and dissociation curves were fitted to a 1:1 Langmuir binding model using FortéBio Data Analysis software (Pall). In each test group, the off-rates of antibodies were able to be compared with that of mAb747c. The off-rate ratios were calculated by the off-rate of antibody to that of mAb747c of its group and were compared all together. The lower the ratio was, the higher was the affinity of the antibody.

[7] = target: T4, recombinant human LAG-3-his protein …; experiment: BLI Octet, Ab on AHC sensor, huLAG-3-his; test group 2
Experimental: as §2, with “9” for “18”, “25)” for “34)”, “Octet RED96” for “Octet®RED96”, “FortéBio” for “ForteBio”, “Anti-HIgG” for “Anti-hIgG”, “(Pall).” for “(Pall). In each test group, the off-rates of antibodies were able to be compared with that of mAb747c. The off-rate ratios were calculated by the off-rate of antibody to that of mAb747c of its group and were compared all together. The lower the ratio was, the higher was the affinity of the antibody.”
The seven Fab clones were converted to full IgG proteins. Briefly, the VH and VL genes were produced synthetically and then cloned into vectors containing coding sequences for the human IgG1 and human kappa constant domains, respectively. The heavy chain and cognate light chain plasmids were co-transfected into HEK 293E cells, individually. After approximately six days of post-transfection cell culture, the supernatants were harvested and subjected to Protein A affinity chromatography. The affinity of purified antibodies was ranked by Octet® RED96 biolayer interferometry (see, Example 9.1, supra).

Binder | Max IL-2 [1] | EC50 [2] | EC50 [3] | Max-MFI [3] | EC50 [4] | Max-MFI [4] | IC50 [5] | Max. Inhib. (%) [5] | koff [6] | off-rate ratio to that of mAb747c [6] | koff [7] | off-rate ratio to that of mAb747c [7]
B1 | 733 pg/mL | 0.22 nM | 2.8 nM | 103 MFI | 56.4 nM | 48.5 MFI | 3.84 nM | 96.5% |  |  |  | 
B2 | 612 pg/mL | 0.19 nM | 9.5 nM | 135 MFI | 67 nM | 37.8 MFI | 10.8 nM | 96.5% |  |  |  | 
B3 | 539 pg/mL | 0.24 nM | 13.4 nM | 73.1 MFI | 79.6 nM | 31.9 MFI | 4.8 nM | 96.1% |  |  |  | 
B4 |  |  |  |  |  |  |  |  | 0.0012 s⁻¹ | 226% |  | 
B5 |  |  |  |  |  |  |  |  |  |  | 0.0026 s⁻¹ | 160%
B6 |  |  |  |  |  |  |  |  | 0.00081 s⁻¹ | 153% |  | 
